These are literature values, as cited in PMC1562422.

A word on the Kd: it is the constant that tells how readily two partners part at equilibrium.

Data set [1] has as its target IL2 receptor β chain (Homo sapiens) (UniProt P14784). The data set can be described thus: SPR.
For data set [2], the target named is IL2 receptor α chain (Homo sapiens) (UniProt P01589). The data set can be described thus: ITC. Background: ITC needs no label: the signal is the heat of the interaction.
Data set [3] has as its target IL2 receptor β chain (Homo sapiens) (UniProt P14784). The data set can be described thus: ITC.
For data set [4], the target named is IL2 receptor γ chain (Homo sapiens) (UniProt P31785).
Chain of UniProt P31785 (P31785 23-262): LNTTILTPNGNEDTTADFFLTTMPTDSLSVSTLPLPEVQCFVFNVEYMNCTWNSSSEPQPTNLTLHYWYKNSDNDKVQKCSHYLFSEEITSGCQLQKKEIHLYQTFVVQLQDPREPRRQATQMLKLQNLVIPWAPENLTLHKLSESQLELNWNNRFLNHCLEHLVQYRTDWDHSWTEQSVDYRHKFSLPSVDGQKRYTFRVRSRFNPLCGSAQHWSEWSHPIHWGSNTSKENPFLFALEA

Chain of IL2 (P60568 21-153): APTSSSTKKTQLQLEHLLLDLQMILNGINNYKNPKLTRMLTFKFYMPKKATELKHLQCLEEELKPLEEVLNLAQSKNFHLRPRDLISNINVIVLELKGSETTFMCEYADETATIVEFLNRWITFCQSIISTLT
Chain of UniProt P14784 (P14784 27-240): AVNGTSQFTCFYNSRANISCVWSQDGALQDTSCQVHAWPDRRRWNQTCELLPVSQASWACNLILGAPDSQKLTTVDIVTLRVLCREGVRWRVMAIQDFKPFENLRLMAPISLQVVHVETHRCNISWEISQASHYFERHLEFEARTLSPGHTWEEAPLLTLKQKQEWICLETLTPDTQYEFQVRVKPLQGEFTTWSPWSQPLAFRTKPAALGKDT

In the case of IL2 (from UniProt P60568), the Kd is 450 nM in data set [1], 10 nM in data set [2], 144 nM in data set [3] and > 700000 nM in data set [4].
On to “IL2 receptor α chain (from UniProt P01589)”, for which the Kd in data set [3] was 278 nM.
